This is an account of results in paper PMC11419155 (bioRxiv, 2024).

This assay deals with recombinant HAstV1 capsid spike, histidine-tagged (Human astrovirus 1 (AAC34717.1), UniProt O12792). Put plainly: BLI. A general note: BLI is a label-free optical method that tracks binding on a fibre tip over time.
recombinant HAstV1 capsid spike, histidine-tagged, sequence (O12792 429-645): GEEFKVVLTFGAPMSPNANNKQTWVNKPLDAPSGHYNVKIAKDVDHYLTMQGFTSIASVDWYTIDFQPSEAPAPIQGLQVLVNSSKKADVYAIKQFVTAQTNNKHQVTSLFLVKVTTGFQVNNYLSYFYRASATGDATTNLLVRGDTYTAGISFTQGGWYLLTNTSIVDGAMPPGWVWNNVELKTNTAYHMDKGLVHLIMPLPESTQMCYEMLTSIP

B1: recombinant Fab 3H4 (Fab, V domains shown)
VH: QVQLKESGPGLVAPSQSLSISCTVSGFSLTTFGIHWIRQPPGKGLEWLGVIWAAGTTNYNSTLKSRLTITKDNSRSQVFLKMNSLQTYDTAIYYCVREDYDYFFGLDYWGQGTSVTVSS
VL: QAVVTQESALTTSPGETVTLTCRSSTGAVTTSNYASWVQEKPDHLFIGLIGGTNNRAPGVPARFSGSLIGDKAALTITGAQTDDEAIYFCALWFSNHWVFGGGTKLTVL
Broadly, the Kd is the constant that tells how readily two partners part at equilibrium. For B1, the Kd was 0.49 nM.

B2: recombinant Fab 3B4 (Fab, V domains shown)
VH: QVQLHQPGAELVKPGASVNLSCKASGYTFTSYWMHWVKQRPGQGLEWIGEINPSSGRANYNEKFKNKATLTVDKSSITAYMHLSSLTSEDSAVYYCHWDYYAMDYWGQGTSVTVSS
VL: DIVLTQSPATLSVTPGDSVSLSCRASQSISNNLHWYQQKSHESPRLLFKSASQSISGIPSRFSGSGSGTDFTLSINSVETEDFGMYFCQQTNSWPLTFGTGTKLDLK
Consider B2, for which the Kd was 11.8 nM.
